Like-named read-outs stand apart in the source and are kept apart here.
T1: OX40-Fc (human, UniProt P43489 29-214)
T1 construct: extracellular domain; hinge included for covalent assembly; also called OX40 receptor-Fc fusion protein; not shown: human Fc gamma 1 region including the hinge region
T1 sequence (looked up): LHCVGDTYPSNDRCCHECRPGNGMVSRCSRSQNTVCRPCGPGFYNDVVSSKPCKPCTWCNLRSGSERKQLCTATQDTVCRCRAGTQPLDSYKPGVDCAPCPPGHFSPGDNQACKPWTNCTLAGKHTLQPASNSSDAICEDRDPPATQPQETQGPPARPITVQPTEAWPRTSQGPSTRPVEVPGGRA

T2: CD27-Fc (human, UniProt P26842 20-191)
T2 construct: extracellular domain; hinge included for covalent assembly; also called CD27 receptor-Fc fusion protein; not shown: human Fc gamma 1 region including the hinge region
T2 sequence (looked up): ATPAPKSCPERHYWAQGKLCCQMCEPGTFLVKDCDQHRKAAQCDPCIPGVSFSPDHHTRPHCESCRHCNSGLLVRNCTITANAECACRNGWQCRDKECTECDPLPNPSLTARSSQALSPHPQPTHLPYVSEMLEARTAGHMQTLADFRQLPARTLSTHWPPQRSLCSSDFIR

T3: OX40 receptor on cells (human, UniProt P43489 29-277)
T3 sequence (looked up): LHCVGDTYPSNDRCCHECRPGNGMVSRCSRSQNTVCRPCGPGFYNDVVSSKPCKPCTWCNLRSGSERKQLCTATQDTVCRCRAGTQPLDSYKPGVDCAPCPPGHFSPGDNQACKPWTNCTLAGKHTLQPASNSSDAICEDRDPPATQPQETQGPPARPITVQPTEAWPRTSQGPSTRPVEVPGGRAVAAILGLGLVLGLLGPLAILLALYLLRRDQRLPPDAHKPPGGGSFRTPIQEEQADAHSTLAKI


How the values were obtained:
OX40-Fc [1] = biological target: T1, OX40-Fc; assay: ELISA, coated receptor-Fc
Procedure: (§1) Receptor binding of the single-chain Duokines was analyzed by ELISA using fusion proteins of the extracellular region of CD40, CD27, 4-1BB and OX40, respectively, with the human Fcγ1 region including the hinge region for covalent assembly (CD40-Fc, CD27-Fc, 4-1BB-Fc, OX40-Fc). Receptor-Fc fusion proteins (200 ng/well) were coated overnight at 4° C. and remaining binding sites were blocked with PBS, 2% skimmed milk powder (2% MPBS). […] The interactions between scDuokine and receptor were dose-dependent with EC₅₀ values in the low nanomolar ranges (FIG. 11 AB, Tab. 2).

CD27-Fc [2] = biological target: T2, CD27-Fc; assay: ELISA, coated receptor-Fc
Procedure: as §1

4-1BB-Fc = biological target: T4, 4-1BB-Fc (human, UniProt Q07011 24-186); assay: ELISA, coated receptor-Fc
T4 construct: extracellular domain; hinge included for covalent assembly; also called 4-1BB receptor-Fc fusion protein; not shown: human Fc gamma 1 region including the hinge region

CD40-Fc [3] = biological target: T5, CD40-Fc (human, UniProt P25942 21-193); assay: ELISA, coated receptor-Fc
T5 construct: extracellular domain; hinge included for covalent assembly; also called CD40 receptor-Fc fusion protein; not shown: human Fc gamma 1 region including the hinge region
T5 sequence (P25942 21-193 limits assumed): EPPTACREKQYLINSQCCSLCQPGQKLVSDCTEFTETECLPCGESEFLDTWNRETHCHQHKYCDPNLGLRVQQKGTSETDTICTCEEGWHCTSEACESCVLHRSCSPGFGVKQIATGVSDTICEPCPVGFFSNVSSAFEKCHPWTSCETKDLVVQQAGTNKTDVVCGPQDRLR

OX40 receptor on cells [4] = biological target: T3, OX40 receptor on cells; assay: cell-based or functional assay
OX40-Fc [5] = biological target: T1, OX40-Fc; assay: ELISA, coated receptor-Fc; remark: listed apart in the source
Procedure: (§2) Receptor binding of the Duokines was analyzed by ELISA using fusion proteins of the extracellular region of CD40, CD27, 4-1BB and OX40, respectively, with the human Fcγ1 region including the hinge region for covalent assembly (CD40-Fc, CD27-Fc, 4-1BB-Fc, OX40-Fc). Receptor-Fc fusion proteins (200 ng/well) were coated overnight at 4° C. and remaining binding sites were blocked with PBS, 2% skimmed milk powder (2% MPBS).

CD40-Fc [6] = biological target: T5, CD40-Fc; assay: ELISA, coated receptor-Fc; remark: listed apart in the source
Procedure: as §2

CD27-Fc [7] = biological target: T2, CD27-Fc; assay: ELISA, coated receptor-Fc; remark: listed apart in the source
CD40 receptor on cells [8] = biological target: T6, CD40 receptor on cells (human, UniProt P25942 21-277); assay: cell-based or functional assay
T6 sequence (P25942 21-277): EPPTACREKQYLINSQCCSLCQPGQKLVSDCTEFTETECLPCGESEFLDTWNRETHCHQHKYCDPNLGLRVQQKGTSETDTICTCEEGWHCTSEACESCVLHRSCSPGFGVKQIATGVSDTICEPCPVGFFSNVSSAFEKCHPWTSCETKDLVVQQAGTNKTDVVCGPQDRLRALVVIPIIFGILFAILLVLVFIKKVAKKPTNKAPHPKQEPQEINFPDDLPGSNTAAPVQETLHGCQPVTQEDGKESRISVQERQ

OX40 receptor on cells [9] = biological target: T3, OX40 receptor on cells; assay: cell-based or functional assay; remark: listed apart in the source
CD40-Fc [10] = biological target: T5, CD40-Fc; assay: ELISA, coated receptor-Fc; remark: listed apart in the source
Procedure: as §1

CD40 receptor on cells [11] = biological target: T6, CD40 receptor on cells; assay: cell-based or functional assay; remark: listed apart in the source

| EC50 (OX40-Fc [1]) [nM] | EC50 (CD27-Fc [2]) [nM] | binding result (4-1BB-Fc) | binding result (CD40-Fc [3]) | Receptor activation (EC50, nM) (OX40 receptor on cells [4]) [nM] | EC50 (OX40-Fc [5]) [nM] | EC50 (CD40-Fc [6]) [nM] | binding result (CD27-Fc [7]) | Receptor activation (EC50, nM) (CD40 receptor on cells [8]) [nM] | Receptor activation (EC50, nM) (OX40 receptor on cells [9]) [nM] | EC50 (CD40-Fc [10]) [nM] | Receptor activation (EC50, nM) (CD40 receptor on cells [11]) [nM] | Binder |
| --- | --- | --- | --- | --- | --- | --- | --- | --- | --- | --- | --- | --- |
| 286 | 7.34 | no binding (tested: 100 nM (FIG. 10)) | no binding (tested: 100 nM (FIG. 10)) | 1.49 |  |  |  |  |  |  |  | scCD27L-scOX40L (ligand, scDuokine from HEK293, FLAG-purified; VH leader left out; also called single-chain Duokine scCD27L-scOX40L; not shown: N-terminal FLAG tag) SLGWDVAELQLNHTGPQQDPRLYWQGGPALGRSFLHGPELDKGQLRIHRDGIYMVHIQVTLAICSSTTASRHHPTTLAVGICSPASRSISLLRLSFHQGCTIASQRLTPLARGDTLCTNLTGTLLPSRNTDETFFGVQWVRPGGGSGGGSLGWDVAELQLNHTGPQQDPRLYWQGGPALGRSFLHGPELDKGQLRIHRDGIYMVHIQVTLAICSSTTASRHHPTTLAVGICSPASRSISLLRLSFHQGCTIASQRLTPLARGDTLCTNLTGTLLPSRNTDETFFGVQWVRPGGGSGGGSLGWDVAELQLNHTGPQQDPRLYWQGGPALGRSFLHGPELDKGQLRIHRDGIYMVHIQVTLAICSSTTASRHHPTTLAVGICSPASRSISLLRLSFHQGCTIASQRLTPLARGDTLCTNLTGTLLPSRNTDETFFGVQWVRPGGGGSGGGTGGGGSQVSHRYPRIQSIKVQFTEYKKEKGFILTSQKEDEIMKVQNNSVIINCDGFYLISLKGYFSQEVNISLHYQKDEEPLFQLKKVRSVNSLMVASLTYKDKVYLNVTTDNTSLDDFHVNGGELILIHQNPGEFCVLGGGSGGGQVSHRYPRIQSIKVQFTEYKKEKGFILTSQKEDEIMKVQNNSVIINCDGFYLISLKGYFSQEVNISLHYQKDEEPLFQLKKVRSVNSLMVASLTYKDKVYLNVTTDNTSLDDFHVNGGELILIHQNPGEFCVLGGGSGGGQVSHRYPRIQSIKVQFTEYKKEKGFILTSQKEDEIMKVQNNSVIINCDGFYLISLKGYFSQEVNISLHYQKDEEPLFQLKKVRSVNSLMVASLTYKDKVYLNVTTDNTSLDDFHVNGGELILIHQNPGEFCVL |
|  |  | no binding (tested: 100 nM (FIG. 4)) |  |  | 1.01 | 1.45 | no binding (tested: 100 nM (FIG. 4)) | 3.86 | 0.73 |  |  | OX40L-CD40L (ligand, Duokine from HEK293, FLAG-purified; VH leader left out; homotrimer by SEC; also called Duokine OX40L-CD40L; not shown: N-terminal FLAG tag) QVSHRYPRIQSIKVQFTEYKKEKGFILTSQKEDEIMKVQNNSVIINCDGFYLISLKGYFSQEVNISLHYQKDEEPLFQLKKVRSVNSLMVASLTYKDKVYLNVTTDNTSLDDFHVNGGELILIHQNPGEFCVLGGGGSGGGGSGGGGSGDQNPQIAAHVISEASSKTTSVLQWAEKGYYTMSNNLVTLENGKQLTVKRQGLYYIYAQVTFCSNREASSQAPFIASLCLKSPGRFERILLRAANTHSSAKPCGQQSIHLGGVFELQPGASVFVNVTDPSQVSHGTGFTSFGLLKL |
| 2.13 |  | no binding (tested: 100 nM (FIG. 10)) |  | 0.51 |  |  | no binding (tested: 100 nM (FIG. 10)) |  |  | 6.74 | 3.22 | scOX40L-scCD40L (ligand, scDuokine from HEK293, FLAG-purified; VH leader left out; also called single-chain Duokine scOX40L-scCD40L; not shown: N-terminal FLAG tag) QVSHRYPRIQSIKVQFTEYKKEKGFILTSQKEDEIMKVQNNSVIINCDGFYLISLKGYFSQEVNISLHYQKDEEPLFQLKKVRSVNSLMVASLTYKDKVYLNVTTDNTSLDDFHVNGGELILIHQNPGEFCVLGGGSGGGQVSHRYPRIQSIKVQFTEYKKEKGFILTSQKEDEIMKVQNNSVIINCDGFYLISLKGYFSQEVNISLHYQKDEEPLFQLKKVRSVNSLMVASLTYKDKVYLNVTTDNTSLDDFHVNGGELILIHQNPGEFCVLGGGSGGGQVSHRYPRIQSIKVQFTEYKKEKGFILTSQKEDEIMKVQNNSVIINCDGFYLISLKGYFSQEVNISLHYQKDEEPLFQLKKVRSVNSLMVASLTYKDKVYLNVTTDNTSLDDFHVNGGELILIHQNPGEFCVLGGGGSGGGTGGGGSGDQNPQIAAHVISEASSKTTSVLQWAEKGYYTMSNNLVTLENGKQLTVKRQGLYYIYAQVTFCSNREASSQAPFIASLCLKSPGRFERILLRAANTHSSAKPCGQQSIHLGGVFELQPGASVFVNVTDPSQVSHGTGFTSFGLLKLGGGSGGGGDQNPQIAAHVISEASSKTTSVLQWAEKGYYTMSNNLVTLENGKQLTVKRQGLYYIYAQVTFCSNREASSQAPFIASLCLKSPGRFERILLRAANTHSSAKPCGQQSIHLGGVFELQPGASVFVNVTDPSQVSHGTGFTSFGLLKLGGGSGGGGDQNPQIAAHVISEASSKTTSVLQWAEKGYYTMSNNLVTLENGKQLTVKRQGLYYIYAQVTFCSNREASSQAPFIASLCLKSPGRFERILLRAANTHSSAKPCGQQSIHLGGVFELQPGASVFVNVTDPSQVSHGTGFTSFGLLKL |
